Laboratory results from article PMC2119884.
Values joined by “and” are separate entries in the source; they are usually repeats but may differ in a detail not shown here. Identical values can stand only once. Like-named read-outs stand apart in the source and are kept apart here.

Tests used:
[1] = target: L266D mutant yeast actin (S. cerevisiae) (UniProt P60010); assay: light scattering
[2] = target: L266D mutant yeast actin (S. cerevisiae) (UniProt P60010); assay: light scattering; remark: listed apart in the source
[3] = target: L266D mutant yeast actin (S. cerevisiae) (UniProt P60010); assay: light scattering; remark: listed apart in the source
[4] = target: L266D mutant yeast actin (S. cerevisiae) (UniProt P60010); assay: sedimentation of F-actin
[5] = target: L266D mutant yeast actin (S. cerevisiae) (UniProt P60010); assay: sedimentation of F-actin; remark: listed apart in the source
[6] = target: L266D mutant yeast actin (S. cerevisiae) (UniProt P60010); assay: sedimentation of F-actin; remark: listed apart in the source
[7] = target: L266D mutant yeast actin (S. cerevisiae) (UniProt P60010); assay: light scattering; remark: listed apart in the source

L266D mutant yeast actin (from UniProt P60010 1-375) (natural protein)
critical concentration (Cc) for polymerization [1]: 11 µM | critical concentration (Cc) for polymerization [2]: 6.5 µM | elongation rate, times slower than wild-type actin [3]: 2 times and 3 times | actin remaining in the supernate (starting concentration 70 µM) [4]: 46.5 µM | actin remaining in the supernate (starting concentration 70 µM) [5]: 4.6 µM | actin remaining in the supernate (starting concentration 70 µM) [6]: 11.6 µM | critical concentration (Cc) for polymerization [7]: 1.2 µM | elongation rate, times slower than wild-type actin [7]: 2 times and 3 times
